T1: ParB, purified (C. crescentus, UniProt P0CAV8 1-304)
T1 sequence (looked up): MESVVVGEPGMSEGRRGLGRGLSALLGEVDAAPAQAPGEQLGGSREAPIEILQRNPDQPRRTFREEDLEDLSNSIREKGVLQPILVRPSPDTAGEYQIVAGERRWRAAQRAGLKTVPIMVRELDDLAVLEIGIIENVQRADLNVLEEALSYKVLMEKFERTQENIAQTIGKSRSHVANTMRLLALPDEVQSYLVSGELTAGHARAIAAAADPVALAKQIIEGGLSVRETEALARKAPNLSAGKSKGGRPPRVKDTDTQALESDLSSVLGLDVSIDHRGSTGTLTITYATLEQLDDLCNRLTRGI

B1: PopZ (Polar Organizing Protein Z), purified, 6-His tag cleaved (natural protein, C. crescentus, UniProt Q9A8N4 1-177, looked up)
chain: MSDQSQEPTMEEILASIRRIISEDDAPAEPAAEAAPPPPPEPEPEPVSFDDEVLELTDPIAPEPELPPLETVGDIDVYSPPEPESEPAYTPPPAAPVFDRDEVAEQLVGVSAASAAASAFGSLSSALLMPKDGRTLEDVVRELLRPLLKEWLDQNLPRIVETKVEEEVQRISRGRGA
B2: 6His-PopZ (His-tagged PopZ) (natural protein, C. crescentus, UniProt Q9A8N4 1-177, looked up)
chain: MSDQSQEPTMEEILASIRRIISEDDAPAEPAAEAAPPPPPEPEPEPVSFDDEVLELTDPIAPEPELPPLETVGDIDVYSPPEPESEPAYTPPPAAPVFDRDEVAEQLVGVSAASAAASAFGSLSSALLMPKDGRTLEDVVRELLRPLLKEWLDQNLPRIVETKVEEEVQRISRGRGA

Legend:
ParB, purified = molecular target: T1, ParB, purified; experiment: SPR
native gel or EMSA = molecular target: the molecule itself; experiment: native gel or EMSA
SEC = molecular target: the molecule itself; experiment: SEC

Binder	Kd (ParB, purified)	binding result (native gel or EMSA)	binding result (SEC)
B1	20 nM	binds	–
B2	–	–	binds

From publication PMC2745220 (Cell, 2008)
